Laboratory results as given in patent publication US20230140293A1.

Columns and labels:
Test in all cases: cell-based or functional assay
[1] = biological target: CH0505.w4.3 Env, Env-pseudotyped virus produced in 293T cells (HIV-1)
[2] = biological target: CH0505TF Env, Env-pseudotyped virus produced in 293S GnTI- cells (Man5-enriched) (HIV-1)
[3] = biological target: CH0505TF Env, Env-pseudotyped virus produced in 293T cells (HIV-1)
[4] = biological target: CH0505TF.G458Y Env, Env-pseudotyped virus produced in 293S GnTI- cells (Man5-enriched) (HIV-1)
[5] = biological target: CH0505TF.G458Y Env, Env-pseudotyped virus produced in 293T cells (HIV-1)
[6] = biological target: CH0505TF.gly3.197 Env, Env-pseudotyped virus produced in 293S GnTI- cells (Man5-enriched) (HIV-1)
[7] = biological target: CH0505TF.gly3.197 Env, Env-pseudotyped virus produced in 293T cells (HIV-1)
[8] = biological target: CH0505TF.gly3.276 Env, Env-pseudotyped virus produced in 293S GnTI- cells (Man5-enriched) (HIV-1)
[9] = biological target: CH0505TF.gly3.276 Env, Env-pseudotyped virus produced in 293T cells (HIV-1)
[10] = biological target: CH0505TF.gly3.461 Env, Env-pseudotyped virus produced in 293S GnTI- cells (Man5-enriched) (HIV-1)
[11] = biological target: CH0505TF.gly3.461 Env, Env-pseudotyped virus produced in 293T cells (HIV-1)
[12] = biological target: CH0505TF.gly4 Env, Env-pseudotyped virus produced in 293S GnTI- cells (Man5-enriched) (HIV-1)
[13] = biological target: CH0505TF.gly4 Env, Env-pseudotyped virus produced in 293T cells (HIV-1)
[14] = biological target: HIV-1 426c.DM (N460D/N463D) Env on Env-pseudotyped virus produced in 293T cells (HIV-1)
[15] = biological target: HIV-1 426c.DM (N460D/N463D) Env on Env-pseudotyped virus produced in 293s/GnTI-/- cells (Man5-enrichment) (HIV-1)
[16] = biological target: HIV-1 426c.SM (N276D) Env on Env-pseudotyped virus produced in 293T cells (HIV-1)
[17] = biological target: HIV-1 426c.SM (N276D) Env on Env-pseudotyped virus produced in 293s/GnTI-/- cells (Man5-enrichment) (HIV-1)
[18] = biological target: HIV-1 426c.TM (N276D/N460D/N463D) Env on Env-pseudotyped virus produced in 293T cells (HIV-1)
[19] = biological target: HIV-1 426c.TM (N276D/N460D/N463D) Env on Env-pseudotyped virus produced in 293s/GnTI-/- cells (Man5-enrichment) (HIV-1)
[20] = biological target: HIV-1 Env 426c, Env-pseudotyped virus produced in 293S GnTI- cells (Man5-enriched) (HIV-1 clade C strain 426c)
[21] = biological target: HIV-1 Env 426c, Env-pseudotyped virus produced in 293T cells (HIV-1 clade C strain 426c)
[22] = biological target: HIV-1 Env 426c.DM (N460D.N463D), Env-pseudotyped virus produced in 293S GnTI- cells (Man5-enriched) (HIV-1 clade C strain 426c)
[23] = biological target: HIV-1 Env 426c.DM (N460D.N463D), Env-pseudotyped virus produced in 293T cells (HIV-1 clade C strain 426c)
[24] = biological target: HIV-1 Env 426c.SM (N276D), Env-pseudotyped virus produced in 293S GnTI- cells (Man5-enriched) (HIV-1 clade C strain 426c)
[25] = biological target: HIV-1 Env 426c.SM (N276D), Env-pseudotyped virus produced in 293T cells (HIV-1 clade C strain 426c)
[26] = biological target: HIV-1 Env 426c.TM (N276D.N460D.N463D), Env-pseudotyped virus produced in 293S GnTI- cells (Man5-enriched) (HIV-1 clade C strain 426c)
[27] = biological target: HIV-1 Env 426c.TM (N276D.N460D.N463D), Env-pseudotyped virus produced in 293T cells (HIV-1 clade C strain 426c)
[28] = biological target: HIV-1 Env 426c.TM4 (S278R.G471S.N460D.N463D), Env-pseudotyped virus produced in 293S GnTI- cells (Man5-enriched) (HIV-1 clade C strain 426c)
[29] = biological target: HIV-1 Env 426c.TM4 (S278R.G471S.N460D.N463D), Env-pseudotyped virus produced in 293T cells (HIV-1 clade C strain 426c)
[30] = biological target: HIV-1 clade C strain 426c Env on Env-pseudotyped virus produced in 293T cells (HIV-1)
[31] = biological target: HIV-1 clade C strain 426c Env on Env-pseudotyped virus produced in 293s/GnTI-/- cells (Man5-enrichment) (HIV-1)

F105 (antibody)
> 25 µg/mL: IC50 (µg/ml) in TZM-bl [2] | IC50 (µg/ml) in TZM-bl [3] | IC50 (µg/ml) in TZM-bl [4] | IC50 (µg/ml) in TZM-bl [5] | IC50 (µg/ml) in TZM-bl [6] | IC50 (µg/ml) in TZM-bl [7] | IC50 (µg/ml) in TZM-bl [8] | IC50 (µg/ml) in TZM-bl [9] | IC50 (µg/ml) in TZM-bl [10] | IC50 (µg/ml) in TZM-bl [11] | IC50 (µg/ml) in TZM-bl [12] | IC50 (µg/ml) in TZM-bl [13] | ID50/IC50 in TZM-bl [14] | ID50/IC50 in TZM-bl [15] | ID50/IC50 in TZM-bl [16] | ID50/IC50 in TZM-bl [17] | ID50/IC50 in TZM-bl [18] | ID50/IC50 in TZM-bl [19] | IC50 (µg/ml) in TZM-bl [20] | IC50 (µg/ml) in TZM-bl [21] | IC50 (µg/ml) in TZM-bl [22] | IC50 (µg/ml) in TZM-bl [23] | IC50 (µg/ml) in TZM-bl [24] | IC50 (µg/ml) in TZM-bl [25] | IC50 (µg/ml) in TZM-bl [26] | IC50 (µg/ml) in TZM-bl [27] | IC50 (µg/ml) in TZM-bl [28] | IC50 (µg/ml) in TZM-bl [29] | ID50/IC50 in TZM-bl [30] | ID50/IC50 in TZM-bl [31]
10.8 µg/mL: IC50 (µg/ml) in TZM-bl [1]

2557 (antibody)
> 25 µg/mL: IC50 (µg/ml) in TZM-bl [1] | IC50 (µg/ml) in TZM-bl [2] | IC50 (µg/ml) in TZM-bl [3] | IC50 (µg/ml) in TZM-bl [4] | IC50 (µg/ml) in TZM-bl [5] | IC50 (µg/ml) in TZM-bl [6] | IC50 (µg/ml) in TZM-bl [7] | IC50 (µg/ml) in TZM-bl [8] | IC50 (µg/ml) in TZM-bl [9] | IC50 (µg/ml) in TZM-bl [10] | IC50 (µg/ml) in TZM-bl [11] | IC50 (µg/ml) in TZM-bl [12] | IC50 (µg/ml) in TZM-bl [13] | ID50/IC50 in TZM-bl [14] | ID50/IC50 in TZM-bl [15] | ID50/IC50 in TZM-bl [16] | ID50/IC50 in TZM-bl [17] | ID50/IC50 in TZM-bl [18] | ID50/IC50 in TZM-bl [19] | IC50 (µg/ml) in TZM-bl [20] | IC50 (µg/ml) in TZM-bl [21] | IC50 (µg/ml) in TZM-bl [22] | IC50 (µg/ml) in TZM-bl [23] | IC50 (µg/ml) in TZM-bl [24] | IC50 (µg/ml) in TZM-bl [25] | IC50 (µg/ml) in TZM-bl [26] | IC50 (µg/ml) in TZM-bl [27] | IC50 (µg/ml) in TZM-bl [28] | IC50 (µg/ml) in TZM-bl [29] | ID50/IC50 in TZM-bl [30] | ID50/IC50 in TZM-bl [31]

2F5 (antibody)
> 25 µg/mL: IC50 (µg/ml) in TZM-bl [1] | IC50 (µg/ml) in TZM-bl [2] | IC50 (µg/ml) in TZM-bl [3] | IC50 (µg/ml) in TZM-bl [4] | IC50 (µg/ml) in TZM-bl [5] | IC50 (µg/ml) in TZM-bl [6] | IC50 (µg/ml) in TZM-bl [7] | IC50 (µg/ml) in TZM-bl [8] | IC50 (µg/ml) in TZM-bl [9] | IC50 (µg/ml) in TZM-bl [10] | IC50 (µg/ml) in TZM-bl [11] | IC50 (µg/ml) in TZM-bl [12] | IC50 (µg/ml) in TZM-bl [13] | ID50/IC50 in TZM-bl [14] | ID50/IC50 in TZM-bl [15] | ID50/IC50 in TZM-bl [16] | ID50/IC50 in TZM-bl [17] | ID50/IC50 in TZM-bl [18] | ID50/IC50 in TZM-bl [19] | IC50 (µg/ml) in TZM-bl [20] | IC50 (µg/ml) in TZM-bl [21] | IC50 (µg/ml) in TZM-bl [22] | IC50 (µg/ml) in TZM-bl [23] | IC50 (µg/ml) in TZM-bl [24] | IC50 (µg/ml) in TZM-bl [25] | IC50 (µg/ml) in TZM-bl [26] | IC50 (µg/ml) in TZM-bl [27] | IC50 (µg/ml) in TZM-bl [28] | IC50 (µg/ml) in TZM-bl [29] | ID50/IC50 in TZM-bl [30] | ID50/IC50 in TZM-bl [31]

2G12 (antibody)
> 50 µg/mL: IC50 (µg/ml) in TZM-bl [1]
> 25 µg/mL: IC50 (µg/ml) in TZM-bl [2] | IC50 (µg/ml) in TZM-bl [3] | IC50 (µg/ml) in TZM-bl [4] | IC50 (µg/ml) in TZM-bl [5] | IC50 (µg/ml) in TZM-bl [6] | IC50 (µg/ml) in TZM-bl [7] | IC50 (µg/ml) in TZM-bl [8] | IC50 (µg/ml) in TZM-bl [9] | IC50 (µg/ml) in TZM-bl [10] | IC50 (µg/ml) in TZM-bl [11] | IC50 (µg/ml) in TZM-bl [12] | IC50 (µg/ml) in TZM-bl [13] | ID50/IC50 in TZM-bl [14] | ID50/IC50 in TZM-bl [15] | ID50/IC50 in TZM-bl [16] | ID50/IC50 in TZM-bl [17] | ID50/IC50 in TZM-bl [18] | ID50/IC50 in TZM-bl [19] | IC50 (µg/ml) in TZM-bl [20] | IC50 (µg/ml) in TZM-bl [21] | IC50 (µg/ml) in TZM-bl [22] | IC50 (µg/ml) in TZM-bl [23] | IC50 (µg/ml) in TZM-bl [24] | IC50 (µg/ml) in TZM-bl [25] | IC50 (µg/ml) in TZM-bl [26] | IC50 (µg/ml) in TZM-bl [27] | IC50 (µg/ml) in TZM-bl [28] | IC50 (µg/ml) in TZM-bl [29] | ID50/IC50 in TZM-bl [30] | ID50/IC50 in TZM-bl [31]
